How the values were obtained:
[1] = system: bone marrow progenitor cells; assay: Colony assay: clonal proliferation and differentiation of bone marrow progenitor cells in semi-solid agar; format: cell-based
Experimental: (a) Colony assay: this assay measured the clonal proliferation and differentiation of bone marrow progenitor cells in semi-solid agar and was carried out as described (Lopez et. al., 1985, Blood 72, 1797-1804). Briefly, low density, macrophage-depleted bone marrow cells were cultured at a concentration of 0.5 to 1×10^5 /mL in Iscove's modified Dulbecco's medium (IMDM, GIBCI, Grant Island, N.Y.), containing 0.33% agar (Difco, Detroit), 25% FCS (Commonwealth Serum Laboratories, Parkville, Victoria, Australia), and 20 μmol/LK2-mercaptoethanol. Different dilutions of IL-3- containing COS cell supernatants were added to each plate. Plates were prepared in triplicate and scored after incubation at 37° C. in 5% CO2 in a humid atmosphere for 14 days. Clones containing 40 cells were scored as colonies.

[2] = target: T1, IL-3 high affinity receptor of monocytes (Homo sapiens, UniProt P26951+P32927); assay: Competition for 125I-IL-3 binding to the high affinity receptor of monocytes; conditions: high affinity receptor on monocytes
T1 construct: endogenous in cells; host or cells: freshly purified human peripheral blood monocytes
T1 sequence (P26951 19-378): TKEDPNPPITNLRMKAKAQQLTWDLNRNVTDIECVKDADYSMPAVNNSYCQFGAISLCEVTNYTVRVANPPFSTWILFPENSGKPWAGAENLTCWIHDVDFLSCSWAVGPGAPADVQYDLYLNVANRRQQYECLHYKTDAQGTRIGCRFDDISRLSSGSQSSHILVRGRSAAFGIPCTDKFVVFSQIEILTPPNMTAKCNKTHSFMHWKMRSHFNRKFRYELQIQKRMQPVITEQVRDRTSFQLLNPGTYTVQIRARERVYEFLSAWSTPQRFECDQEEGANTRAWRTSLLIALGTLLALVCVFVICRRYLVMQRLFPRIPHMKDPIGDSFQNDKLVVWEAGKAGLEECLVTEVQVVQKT
T1 sequence (P32927 17-897): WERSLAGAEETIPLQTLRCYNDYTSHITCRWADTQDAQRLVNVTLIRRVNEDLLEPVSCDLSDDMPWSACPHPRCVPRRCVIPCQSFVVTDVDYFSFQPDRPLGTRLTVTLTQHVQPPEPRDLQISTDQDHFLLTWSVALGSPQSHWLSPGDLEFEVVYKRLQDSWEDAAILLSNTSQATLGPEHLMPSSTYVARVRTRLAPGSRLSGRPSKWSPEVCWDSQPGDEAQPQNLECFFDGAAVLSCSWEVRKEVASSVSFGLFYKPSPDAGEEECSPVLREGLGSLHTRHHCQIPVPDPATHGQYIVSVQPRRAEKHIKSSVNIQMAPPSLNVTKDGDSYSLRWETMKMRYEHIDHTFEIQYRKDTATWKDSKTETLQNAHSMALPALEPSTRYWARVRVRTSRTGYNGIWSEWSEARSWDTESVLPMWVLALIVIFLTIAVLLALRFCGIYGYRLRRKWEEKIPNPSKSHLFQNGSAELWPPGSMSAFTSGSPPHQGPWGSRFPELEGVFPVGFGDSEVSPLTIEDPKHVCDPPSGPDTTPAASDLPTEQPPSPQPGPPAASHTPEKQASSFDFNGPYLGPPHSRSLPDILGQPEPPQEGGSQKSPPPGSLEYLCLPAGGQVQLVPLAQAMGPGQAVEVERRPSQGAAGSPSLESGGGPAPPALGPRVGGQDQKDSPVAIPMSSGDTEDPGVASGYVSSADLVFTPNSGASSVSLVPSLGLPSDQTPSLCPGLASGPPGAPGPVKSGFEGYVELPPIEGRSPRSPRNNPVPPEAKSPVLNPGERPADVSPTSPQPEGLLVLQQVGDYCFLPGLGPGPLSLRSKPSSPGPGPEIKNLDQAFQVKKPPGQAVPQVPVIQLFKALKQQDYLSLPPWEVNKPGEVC
Experimental: (a) Radioiodination of hIL-3: rh IL-3 (gift from Dr. L. Park, Immunex Corporation, Seattle, Wash.) was radioiodinated by the ICI method as previously described (Contreras et. al., supra). Iodinated protein was separated from free ^125 I by chromatography on a Sephadex G-25 PD 10 column (Pharmacia, Uppsala, Sweden) equilibrated in phosphate-buffered saline (PBS) containing 0.02% Tween 20, and stored at 4° C. for up to 4 weeks. Before use, the iodinated protein was purified from Tween and nonprotein-associated radioactivity by cation exchange chromatography on a 0.3-ml CM-Sepharose CL-6B column (Pharmacia) and stored at 4° C. for up to 5 days.
(b) Competition Binding assay. Freshly purified monocytes were suspended in binding medium consisting of RPMI 1640 supplemented with 20 mmol/L/HEPES and 0.5% bovine serum albumin (BSA). […] Cell suspensions were then overlaid on 0.2 mL FCS at 4° C. and centrifuged for 30 seconds at a maximum speed in a Beckman Microfugre 12. The tip of each tube was cut off above the visible cell pellet and counted in a Packard Auto-Gamma 5650 (Downer's Grove, Ill). The results are expressed as Percent competition where 100% is the competition observed in the presence of 100 fold excess native IL-3.

fold higher binding affinity than wild-type IL-3 [2]: 10-15 fold | fold higher binding affinity than wild-type IL-3 ([2]; listed as IL-3 (Ala^101, Val^116)): 16 fold
B1: M37: human IL-3 mutant, Asp 101 replaced by Ala and Lys 116 by Val (protein, UniProt P08700 20-152, looked up, variant D101A K116V)
Interleukin-3: APMTQTTPLKTSWVNCSNMIDEIITHLKQPPLPLLDFNNLNGEDQDILMENNLRRPNLEAFNRAVKSLQNASAIESILKNLLPCLPLATAAPTRHPIHIKAGDWNEFRRKLTFYLVTLENAQAQQTTLSLAIF
number of day 14 colonies [1]: increase in the number of day 14 colonies | Relative biological activity, PROLIFERATION COLONIES ([1]; concentration of IL-3 mutant giving 50% of biological activity compared to that of wild type IL-3, mean ± SD): 1700

Source: patent US5591427A, “Human Interleukin-3(Il-3) variants and their use to promote or antagonize IL-3-mediated processes” (Medvet Science Pty. Ltd., priority 1979, dated 1997)
